Data: patent US6586222

Target: 35S-cysteine-labelled 26 kD proTNFα (in vitro transcribed/translated)

B1: TNFα convertase purified from HL60 cell membrane fraction (identified as PR-3) (protein)
chain: IVGGHEAQPHSRPYMASLQMRGNPGSHFCGGTLIHPSFVLTAAHCLRDIPQRLVNVVLGAHNVRTQEPTQQHFSVAQVFLNNYDAENKLNDVLLIQLSSPANLSASVATVQLPQQDQPVPHGTQCLAMGWGRVGAHDPPAQVLQELNVTVVTFFCRPHNICTFVPRRKAGICFGDSGGPLICDGIIQGIDSFVIWGCATRLFPDFFTRVALYVDWIRSTLR
  cleavage of 26 kD proTNFα to the 17 kD mature form: The purified convertase was shown to cleave the 26 kD proTNFα to the 17 kD mature form.
